Reference: US8338123B2, “Food production process” (DSM IP Assets B.V., priority 2002, dated 2012)

B1: Aspergillus niger asparaginase ASPA01, SEQ ID NO: 3 (Aspergillus niger CBS 513.88) (protein)
chain: SPLLYSRTTNETFVFTNANGLNFTQMNTTLPNVTIFATGGTIAGSDSSSTATTGYTSGAVGVLSLIDAVPSMLDVANVAGVQVANVGSEDITSDILISMSKKLNRVVCEDPTMAGAVITHGTDTLEETAFFLDATVNCGKPIVIVGAMRPSTAISADGPFNLLEAVTVAASTSARDRGAMVVMNDRIASAYYVTKTNANTMDTFKAMEMGYLGEMISNTPFFFYPPVKPTGKVAFDITNVTEIPRVDILFSYEDMHNDTLYNAISSGAQGIVIAGAGAGGVTTSFNEAIEDVINRLEIPVVQSMRTVNGEVPLSDVSSDTATHIASGYLNPQKSRILLGLLLSQGKNITEIADVFALGTDA

Experiments:
humans = conditions: life-long exposure, daily uptake 1.6 ug acrylamide/kg; cited from earlier work
[1] = substrate: NC(=O)C[C@H](N)C(=O)O; assay: purified protein, by the assay type; conditions: other: substrate L-asparagine, pH 5.5, 37° C.

| Molecule | cancer risk (humans) | Km [1] [µM] | Vmax [1] [µmol/min/mg] |
| --- | --- | --- | --- |
| C=CC(N)=O [acrylamide] | 7*10^−3 | – | – |
| B1 | – | 2400 ± 300 | 1100 |
